How the values were obtained:
[1] = molecular target: NET1_(ΔNTR) 'Interface-1' mutant (F55R), made with an N-terminal His6-SUMO tag (human) (UniProt O95631); assay: AUC; sedimentation velocity, 20 °C; binary NEO1_(FN456)-NET1_(ΔNTR) complexes (NET1 wild type at different concentrations, or Interface-1/-2 mutants) mixed equimolar, 10 mM HEPES pH 7.5, 150 mM NaCl, 2 mM CaCl2
[2] = molecular target: NET1_(ΔNTR) 'Interface-2' mutant (Q443N/R445T), made with an N-terminal His6-SUMO tag (human) (UniProt O95631); assay: as above
[3] = molecular target: NET1_(ΔNTR)^F55R with C-terminal biotinylated Avi-tag (SPR ligand) (human) (UniProt O95631); assay: SPR; NEO1/DCC:NET1 binding site analysis; biotinylated NET1_(ΔNTR) wild type, Interface-1 and Interface-2 mutants captured at 1007, 1027 and 937 RU; analytes NEO1 and DCC FN456 and FN56, two-fold series from 50 μM; equilibrium, one-site model; 25 °C, 10 mM HEPES pH 7.5, 150 mM NaCl, 0.05% polysorbate-20, 1 mg/ml BSA
[4] = molecular target: NET1_(ΔNTR)^Q443N/R445T with C-terminal biotinylated Avi-tag (SPR ligand) (human) (UniProt O95631); assay: as above
1D4-tagged NET1_(ΔNTR) = 1D4-tagged NET1_(ΔNTR) (UniProt O95631); assay: proximity ligation assay (PLA); details: COS-7 cells co-transfected with NEO1-mVenus and full-length RGMB, incubated with NET1ΔNTR; p = 0.0107; parent: est. 59; read off a plot

Substance | stoichiometry N [1] | stoichiometry N [2] | fold lower affinity than wild-type NET1 (ΔNTR) [3] [fold] | fold reduction of binding against wild-type NET1 (ΔNTR) [4] [fold] | response (No. of PLA foci) (1D4-tagged NET1_(ΔNTR))
NEO1 FN type III domains 4 to 6 (NEO1_(FN456)) (domain or fragment) | 1 NET1:NEO1 | 1 NET1:NEO1 | 10 | 2 | –
full-length GPI-anchored RGMB (RGMBFL), N-terminal FLAG (from UniProt Q6NW40) A186R | – | – | – | – | 22
